Assays:
HCC1569 xenograft = assay: Tumour xenograft; type: in vivo, mice; settings: HER2 positive breast cancer, heterogeneous B7-H4
Description: (§1) Tumour xenografts were prepared on mice using the following cancer cell lines: • OVCAR4 (Cisplatin refractory ovarian cancer; high B7-H4 expression) • HCC1569 (HER2 positive breast cancer; heterogeneous B7-H4 expression) • MDA-MB-468 (Triple negative breast cancer; low B7-H4 expression)

MDA-MB-468 xenograft = assay: Tumour xenograft; type: in vivo, mice; settings: triple negative breast cancer, low B7-H4
Description: as §1

OVCAR4 xenograft = assay: Tumour xenograft; type: in vivo, mice; settings: cisplatin refractory ovarian cancer, high B7-H4
Description: as §1

Toxicology study = type: in vivo; settings: male cynomolgus monkeys, N=2/dose level
Description: E02-GL-SG3249 was administered to male cynomolgus monkeys (N═2/dose level). The “E02-GL” antibody has the CDR/VH sequences (e.g. corresponds to) of ZY0EQD-E02 (“GL” means the antibody has been germlined).

[1] = system: HT29 WT (not expressing B7-H4); assay: Bystander killing in vitro (conditioned medium); type: cell-based, human; settings: donor cells treated 4 days
Description: HT29 B7-H4 expressing cells were treated with E02-GL-SG3249 for 4 days, after which the conditioned medium was removed and added to HT29 WT (i.e. not expressing B7-H4).

SKBR-3 cells = assay: Caspase 3/7 activity (IncuCyte); type: cell-based, human
Description: SKBR-3 cells were treated with E02-GL-SG3249, SG3199 and Olaparib (control) and monitored for caspase 3/7 activity (e.g. apoptosis) by IncuCyte.

Zr75-1 = assay: E02-GL MESF on cell line; type: cell-based
[2] = system: live cells (B7-H4 on membrane); assay: Internalisation kinetics in live cells (AF647 label); type: cell-based; settings: AF647 conjugate; co-visualisation with Lamp1-AF488
Description: E02-GL conjugated to fluorescence marker AF647 was used to treat live cells. At 0 mins following treatment, clusters of fluorescence were noted on the cell membranes (indicative of binding to B7-H4 present on the membrane).

SKBR3 = assay: E02-GL MESF on cell line; type: cell-based, human
[3] = biological target: T1, immobilized recombinant human B7-H4 (Homo sapiens, UniProt Q7Z7D3); assay: DELFIA-ELISA; type: binding
T1 sequence (Q7Z7D3 25-282): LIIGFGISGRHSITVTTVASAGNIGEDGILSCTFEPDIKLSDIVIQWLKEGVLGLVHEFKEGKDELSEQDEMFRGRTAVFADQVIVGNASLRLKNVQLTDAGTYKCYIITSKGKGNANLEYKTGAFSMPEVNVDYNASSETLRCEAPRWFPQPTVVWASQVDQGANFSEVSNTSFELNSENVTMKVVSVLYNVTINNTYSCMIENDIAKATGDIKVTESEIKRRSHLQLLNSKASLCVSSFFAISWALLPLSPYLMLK
Description: To assess whether conjugation of the topoisomerase 1 linker-warhead affected binding properties of the E02-INT antibody, the binding affinity of E02-INT and E02-GL-SG3932 were measured using a DELFIA-ELISA method and an SPR method. […] The kinetic rate constants (kon and koff) and equilibrium dissociation constants (KD) of E02-INT and E02-GL-SG3932 for human B7-H4 antigen was also determined by SPR, using an antibody capture method.

HT29 hB7H4 clone 4 = assay: E02-GL MESF on cell line; type: cell-based, human

B1: E02-GL-SG3249: clone E02-GL (Maia heavy chain backbone) conjugated to the PBD cytotoxin SG3249 (conjugate)
heavy: QVQLQQWGAGLLKPSETLSLACTVYGGSFSGYYWNWIRQPPGKGLEWIGEINHSGSTSYNPSLKSRVTISVDTSKNQFSLKLSSVTAADTAVYYCARVLYNWNVDSWGQGTLVTVSSASTKGPSVFPLAPSSKSTSGGTAALGCLVKDYFPEPVTVSWNSGALTSGVHTFPAVLQSSGLYSLSSVVTVPSSSLGTQTYICNVNHKPSNTKVDKRVEPKSCDKTHTCPPCPAPELLGGPSCVFLFPPKPKDTLMISRTPEVTCVVVDVSHEDPEVKFNWYVDGVEVHNAKTKPREEQYNSTYRVVSVLTVLHQDWLNGKEYKCKVSNKALPAPIEKTISKAKGQPREPQVYTLPPSREEMTKNQVSLTCLVKGFYPSDIAVEWESNGQPENNYKTTPPVLDSDGSFFLYSKLTVDKSRWQQGNVFSCSVMHEALHNHYTQKSLSLSPGK
light: DIQMTQSPSSLSASVGDRVTITCRASQDIRNDVGWYQQKPGKAPKRLIYAASRLQSGVPSRFSGSGSGTEFTLTISSLQPEDFATYYCLQHNSYPRTFGQGTKVEIKRTVAAPSVFIFPPSDEQLKSGTASVVCLLNNFYPREAKVQWKVDNALQSGNSQESVTEQDSKDSTYSLSSTLTLSKADYEKHKVYACEVTHQGLSSPVTKSFNRGEC
Q: What does the source list for B1?
A: tumour volume versus vehicle (HCC1569 xenograft): significant decrease in tumour volume; tumour volume versus vehicle (MDA-MB-468 xenograft): significant decrease in tumour volume; tumour volume versus vehicle (OVCAR4 xenograft): significant decrease in tumour volume; toxicities (Toxicology study): No abnormal toxicities; viability of HT29 WT after conditioned medium from treated HT29 B7-H4 expressing cells [1]: rapid decrease in cell viability; caspase 3/7 activity (SKBR-3 cells): dose dependent increase

B2: E02-GL: germlined ZY0EQD-E02, VH SEQ ID NO: 45, VL SEQ ID NO: 34; antibody intermediate of E02-GL-SG3932 (antibody, V domains shown)
VH: QVQLQQWGAGLLKPSETLSLACTVYGGSFSGYYWNWIRQPPGKGLEWIGEINHSGSTSYNPSLKSRVTISVDTSKNQFSLKLSSVTAADTAVYYCARVLYNWNVDSWGQGTLVTVSS
VL: DIQMTQSPSSLSASVGDRVTITCRASQDIRNDVGWYQQKPGKAPKRLIYAASRLQSGVPSRFSGSGSGTEFTLTISSLQPEDFATYYCLQHNSYPRTFGQGTKVEIK
Q: Which “E02-GL MESF” value (Zr75-1) does the source give for B2 here?
A: Its value is 80,699 MESF.

Q: What about the “internalisation of bound antibody” value [2] of the same molecule?
A: Its value is “internalised by endocytosis”.

Q: What about the “E02-GL MESF” value (SKBR3) of the same molecule?
A: Its value is 78,343 MESF.

Q: And the EC50 [3]?
A: Its EC50 is 1.98 nM.

Q: And the “E02-GL MESF” value (HT29 hB7H4 clone 4)?
A: The value was 71,928 MESF.
